Assay results published in IntAct's records for PubMed 23825108.

Biological target: mmac_human MMACHC (UniProt Q9Y4U1)
Sequence (Q9Y4U1 whole entry): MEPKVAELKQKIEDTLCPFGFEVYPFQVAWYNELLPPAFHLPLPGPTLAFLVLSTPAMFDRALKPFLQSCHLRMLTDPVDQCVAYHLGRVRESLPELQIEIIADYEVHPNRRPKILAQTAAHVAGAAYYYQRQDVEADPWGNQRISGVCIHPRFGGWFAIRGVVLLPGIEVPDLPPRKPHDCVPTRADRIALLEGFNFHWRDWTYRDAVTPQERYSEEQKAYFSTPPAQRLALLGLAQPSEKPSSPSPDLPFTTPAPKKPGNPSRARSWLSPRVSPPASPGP

Methionine synthase (Homo sapiens), Q99707 P1173L, sequence (Q99707 whole entry P1173L): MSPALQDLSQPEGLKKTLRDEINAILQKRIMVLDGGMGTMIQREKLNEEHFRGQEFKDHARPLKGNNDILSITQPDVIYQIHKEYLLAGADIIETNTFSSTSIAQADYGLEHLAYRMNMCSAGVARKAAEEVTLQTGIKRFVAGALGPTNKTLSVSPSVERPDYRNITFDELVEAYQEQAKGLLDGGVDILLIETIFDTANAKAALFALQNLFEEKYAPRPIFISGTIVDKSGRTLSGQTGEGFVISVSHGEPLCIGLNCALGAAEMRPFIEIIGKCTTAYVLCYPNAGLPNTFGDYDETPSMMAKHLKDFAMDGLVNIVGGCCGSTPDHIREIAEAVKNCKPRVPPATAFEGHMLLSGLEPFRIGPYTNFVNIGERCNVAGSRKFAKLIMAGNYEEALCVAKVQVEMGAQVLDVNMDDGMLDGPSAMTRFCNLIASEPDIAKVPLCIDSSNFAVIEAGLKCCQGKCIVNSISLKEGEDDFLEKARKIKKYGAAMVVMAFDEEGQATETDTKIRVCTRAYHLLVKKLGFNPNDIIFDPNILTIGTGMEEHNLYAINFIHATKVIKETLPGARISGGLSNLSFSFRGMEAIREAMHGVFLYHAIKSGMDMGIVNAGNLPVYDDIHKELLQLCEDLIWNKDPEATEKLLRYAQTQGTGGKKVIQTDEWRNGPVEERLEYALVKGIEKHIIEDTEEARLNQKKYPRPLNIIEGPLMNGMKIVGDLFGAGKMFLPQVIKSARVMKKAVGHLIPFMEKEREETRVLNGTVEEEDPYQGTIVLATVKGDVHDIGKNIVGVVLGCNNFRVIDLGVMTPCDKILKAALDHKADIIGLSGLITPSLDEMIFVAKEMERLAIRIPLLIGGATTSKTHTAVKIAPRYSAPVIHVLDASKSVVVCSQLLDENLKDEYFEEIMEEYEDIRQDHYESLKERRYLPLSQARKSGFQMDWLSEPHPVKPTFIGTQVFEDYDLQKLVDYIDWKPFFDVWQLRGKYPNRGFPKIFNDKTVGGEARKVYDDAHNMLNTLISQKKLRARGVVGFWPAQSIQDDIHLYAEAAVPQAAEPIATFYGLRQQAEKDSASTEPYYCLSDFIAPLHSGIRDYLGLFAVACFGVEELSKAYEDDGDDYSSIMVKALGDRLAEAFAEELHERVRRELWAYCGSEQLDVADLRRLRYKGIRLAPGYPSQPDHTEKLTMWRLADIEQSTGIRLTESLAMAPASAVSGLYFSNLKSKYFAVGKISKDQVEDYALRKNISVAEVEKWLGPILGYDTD

Methionine synthase (Homo sapiens), Q99707 P1173L
effect of a mutation on the interaction: increasing interaction strength
